Assay results from the DeepSol protein solubility set.

Experiment: soluble on expression in E. coli; label from the status in PepcDB or PDB records

Sequence: HRWITRPKFTHFDLHTLNWDLCLTQANHKSNLALEMLKMLLDSLPETVEKIQTALGQNDQATMLSTIHKLHGASCYCGVPTTQRLCQEIESALKRQTPVEDLEPEILELLDELTKVESAVKQVLSQLSAEITDDQKNGLL
- soluble on expression in E. coli: soluble

Sequence: MQDIPQETLSETTKAEQSAKVDLWEFDLTAIGGERFFFCNEPNEKGEPLTWQGRQYEPYPIQVQDFEMNGKGASPRPNLVVANLFGLVTGMAEDLQSLVGASVVRHQVYSKFLDAVNFSNGNPDADPEQEAVARYNVEQLSELDSSTATIILASPAETDGSVVPGRTMLADSCPWDYRDENCGYDGPPVADEFDKPTSDPKKDKCSHCMKGCEMRNNLVNAGFFASINKLS
- soluble on expression in E. coli: not soluble

Sequence: THMRCRVYYEDTDSEGVVYHANYLKYCERARSEFFFKQNVLPENEEGVFVIRSIKADFFTPASLGQVLEIRTQIKELRKVFVVLFQEIYCIQNASLEPMKPFKVFASEIKFGFVNRSTYSPIAIPKLFKELLNAI
- soluble on expression in E. coli: soluble

Sequence: MKEKEYLFSLDMKVRDYECDLQGVVNNSNYQRYMEHTRHEFWESLGDNFGQMHEKGLDAFVYKVTITFKQSLRSGDRFRSCLTCHKKGPKLIFMQDIIREDGVMAARGEVEVVAVQDGVLTRGEYFDVLMKDILSKTTKLEHHHHHH
- soluble on expression in E. coli: soluble

Sequence: MAHHHHHHMARIISASELEKAADALARGNLVAIPTETVYGLGGNALNKEAVEKIFIVKGRPLTDPLICHVSDVEKAMDLWDVHADPEAVELARVLGTAIWPGPLTIVLRANPLLPNSVTGGSGFVGARIPRHEITLRLLQLVNFPVAAPSANTFGHVSPTTADHVLKDLGPKDSSLLIVDGGPCDIGIESTVVKVNNVESVEILRRGGVTLTEVLRALGDKFHPLITIRDTRLRHLSPEMAMDGPGQLLTHYSPNVPSRLLTPSSFTTNLPMDPEGALVEFSSNSSVAAPTEVLLRHTVIIDFGGKLQCLKPGCLAYRDLSVNAQVREACFAVFDALRWTETIPGAEVVLFPLVSGWPHASVDTDLLAAVEDRLFRAASGKVARIRMQSRSV
- soluble on expression in E. coli: not soluble

Sequence: MGSDKIHHHHHHMKIVKISPRGYCYGVVDAMVIARNAALDTSLPRPIYILGMIVHNKHVTDAFEEDGIITLDGPSRLDILDKIDSGTVIFTAHGVSPEVKQRAKEKGLTTIDATCPDVTKTHDLIEAKKAEGYHVIYIGKKNHPEPEGAVGIAPDIVHLIERADDLKTLEIPTDKILVTNQTTMSQWDVQHLMEDIQKKFPTAEFHKEICLATQVRQEAVAKQADVADLTIVVGDPKSNNSNRLAQVSQEIAGTKAYRVADVSEIKLEWLQGVENVAVTAGASTPTPITKEVIAFLEQYDPMNPATWERVRKVPLQKILPRVKVKKEQ
- soluble on expression in E. coli: not soluble

Sequence: MGSDKIHHHHHHGCSYGVGDDCLPPEEPVPIRMAIAEGKLSTRAPVTTIDASNLSNVGIYAVSEGSIAGQYPWTSTPFALNLVPSGISGSQLSFNPKLYYPLGGKRVIFYSYYPRTTATSGSNYITAPGNGVAPAYHFTLTGTEDIMYAAGTPTGSTSTMPVSLTFNHVLTQLQLNTSLLGALSSIKLLGVYNKGMLDIGNGNVTYDSSTTDITLTVPLLGSVTNTVMVPAGVASYKVEVVLLLSLLKRTYLVKPTSGNFQPGVIYTISL
- soluble on expression in E. coli: not soluble

Sequence: SLARELMRTQKEIFALILDFAKRTDSIRAVTLEGSRANPNIKQDKFCDYDISFFLNAKNLESFKNNEEWLKIFGNILMLQKPESMELYPPDLREGWFSFLVLFDDGVRIDLSLIPLADIEWYKDNERLMRVLLDKDNQFMPINEPSDSAFFIKPLTKQSFLDCCNELYWLYVCTHKDILRGELLLANAHLAMMREGLLILLSWRVALRQNNFAFSLGKEYKFLPHFLEPKERKTLYKCYKLGDLKQAQKTLKIMEKFFAKNARELIKVHFKDLHTLPYAKVAKQYVRILKHKIV
- soluble on expression in E. coli: soluble

Sequence: MAHHHHHHMAPPSSSACDPRVYLHERVRQHYLEVLPSRWRAVLFRLAKNTQLRQKNDVIVETHLLSEMQADFDLIHALLDEEHRVYREGVACLCSQASNGKSETERWTASRHLLQGMLSCIAMKEILIAHWKNDLVDISPNTLRVYCHACISHPHVSETDIERLLALYAVS
- soluble on expression in E. coli: not soluble

Sequence: MSLCTPLTSYSGFQAIEAKPAEMKVGEDSKSTLMEKLGSPSAVSTFDNNTWYYISQTTDRVAFYMPRVIKRDVVAIKFNPADEKVASVDTYTLQDGKVIAYNGRETPTRGREMTILEQLLGNVGRGGMLPQDDTAPGQRPGDREGHHHHHH
- soluble on expression in E. coli: soluble

Sequence: MFSCISPQKSPAFSPEQEKMLKSNRANEPQSFVKGNDAAKSDLIDLEEVVTNWAKTMFDVTKSKAEGKIKKKYLSYNINWTKLFQECSEPTYTILGAKPNVVDAKQDEKVIFKTTFTNTTQREQEYSFKTERCTRSSSTVIIEKGVCRGAEVSLKLKTPCEVVEANAGFTTEVMLNHIGENTSEEELTWGVDSCVKVPPGAETVAELVIIEDIVTRDFRIENRLSGKVLVTITNLKENNSLVTIIEGNICDIIRGMPDYTAKGFRFDGPAAIYETRGQCIFRFGIEQKVRINEFSLNSSRRY
- soluble on expression in E. coli: not soluble

Sequence: MGHHHHHHSHMDPEVTLLLQCPGGGLPQEQIQAELSPAHDRRPLPGGDEAITAIWETRLKAQPWLFDAPKFRLHSATLAPIGSRGPQLLLRLGLTSYRDFLGTNWSSSAAWLRQQGATDWGDTQAYLADPLGVGAALATADDFLVFLRRSRQVAEAPGLVDVPGGHPEPQALCPGGSPQHQDLAGQLVVHELFSSVLQEICDEVNLPLLTLSQPLLLGIARNETSAGRASAEFYVQCSLTSEQVRKHYLSGGPEAHESTGIFFVETQNVRRLPETEMWAELCPSAKGAIILYNRVQGSPTGAALGSPALLPPL
- soluble on expression in E. coli: not soluble

Sequence: MALARANSPQEALLWALNDLEENSFKTLKFHLRDVTQFHLARGELESLSQVDLASKLISMYGAQEAVRVVSRSLLAMNLMELVDYLNQVCLNDYREIYREHV
- soluble on expression in E. coli: soluble

Sequence: MGSDKIHHHHHHLKICLSCSARFTDSGWRCPVCFSTPEQVDGFLSFAPAQAKSDEGFQPHHFNELAQAEAEHFWFRSRNRLIIWALHRFFPDARKFLEIGCGTGFVLSGIAQDNPRLEISGSEIHSAGLSHAADRARNATLFQMDARDIPFDSEFDVIGAFDVLEHIEEDSQVLLQMFRAISPGGGMIVTVPQHRFLWSQQDEHACHVRRYEAQELQDKVEKAGFRVEKATSFVSLLLPLMFISRLSKRKPVENYDPTQEFRIKKWVNTILEGILDLERLMIRGRVSFPMGGSRLLIARKPAGA
- soluble on expression in E. coli: not soluble

Sequence: MNIDTRIKFRHLVCFLEVARQGSLARASDALAISQPALSKSLKELETLLATTLFVRSKSGAALTDAGVAFMRFAGPSVQALRDGVSSLRSGEHETVTARLGVLSTAESLLVPEVVKRLHTRHPALIVSVMTGPSAYLLSQLRVGELDLVVGRMTDSPQIQGLTFEHLYHESMTLVVRNDHPLLAAPLKRESLEQFPLVLPLAGTTIRKFADSLFVQCGIQMPRQRLETLSLTLSRRYVQCSNAIWIAPLDAVLLELKGGTLVELDMGIREPGGSVGLCSNPALPLTRAAQWCVDELRTVGAAYREGQYA
- soluble on expression in E. coli: not soluble

Sequence: MISPKKEITSSKYQKIAISVAQRIANGEYEVGEKLKSRTTIASTFNVSPETARKGLNILADLKILTLKHGSGAIVLSKERAIEFINQYESTHSIAVLKEKIRETINDQGKAMEKMAVLVNDFLMQSQSVSKQYPLAPYEIICNQDSEHFGKSIGVLNIWHQTGATIVAIEHAGQFIVSPGPYSVIEKGDHIYFVGDESVISRMKTFFNLRKGL
- soluble on expression in E. coli: not soluble

Sequence: MSLEDCVISEWGPWTQCALPCNPSGSRQRSADPIRQPADEGRACPDAVEKEPCSLNKNCYHYDYNVTDWSTCQLSEKAVCGNGIKTRMLDCVRSDGKSVDLKYCEELGLEKNWPMNTSCTVECPVNCQLSDWSSWSQCSQTCGLTGKMIRKRTVTQPFQGDGRPCPSLMEQSKPCPVKPCYRWQYGQWSPCQVQEAQCGEGTRTRNISCVVSDGSAEDFSKVVDEEFCANTELEGHHHHHH
- soluble on expression in E. coli: not soluble

Sequence: VNCVFITPDKMDGKRISYDYVVQQYEIQRLLQRRPLITLIDICKEITSGIRVKKEYYTDKNGYKIIAPGDIRNEVIYINELKVVQPEVVREKDIINNGDILITASGKSGQVIYVNEVLEGCVVTSDIIKITLRDRDKGIRLYKFLKSSIGQMLLNSIKIGILNKIFVEDVENLLIPEDFDTYQEDCSDDSTVYAEAEKLYRSAENIFYRVFDYKGEKKNLKHFYVTEYLDSHRLDPEYYSNFYTELYRVIHKNFDDVKWEELGELVEIKKADKPEISKNQKVKYFLLADIDPNFSIIKETHEDFYGNLSNRMRYIVRRGEIVTAKGGSATGTKGHATALITEKFDGLVTTDALYNLVPRRINPYYLLFLFKQPIILNQVNMFTKGTLYKLIQRNDFEKIKIPRLESSLEEQIVDKMMNYLSVLQNKF
- soluble on expression in E. coli: not soluble

Sequence: MDEDIICVGCGAILQSDDPKKAGYLPKSALDKAKREENTDVYCQRCFRLRHYNEIMPVDLNNDDFLALLNSLSEKKALVVNVVDLFDFSNSLLSSLKRFVGNNDFILVGNKFDLFPKNSKQSKIKDWMRQEANRMGLYPKDIFLVSAKKKVNLESLISYINDHSQDKDVYFVGTTNVGKSTLINAIIDMMGDIQDLITTSRFPGTTLDQIEIPLENGHFLIDTPGIMTDNQLATHLNAKDLELVSPKKPLKPATYQLLPGNTLFLAGLGRIDFLKGESTSFTVYVARDMYVHRTKTANADAFYEKHKGELLTPPSADDQMAPLKGKEFRTDYKSDLLFGGIGFVTVPKGCVVKTYTPDGIGLGIRRALILEHHHHHH
- soluble on expression in E. coli: soluble

Sequence: CYVDTNNDGAYEGDELSGTMEYKLILNGKTLKGETTTCAVDAATAEKVFKQYANDNGVDGEWTYDDATKTFTVTE
- soluble on expression in E. coli: soluble

Sequence: MGSDKIHHHHHHMTKHASARKFPPRARFLPKCEPSLYHERRSVSARASGPTTVIDPKTVTDVTNDTLSHYALPAYPAEQFCVDIGANAGDPIGILDDLVMDDIYELTSDARLRRLAFGVSTEGTITLHSESEMGQDGARLHLDCAVTLMPDLGSAIEALIAVEVDNEGLIARLYLIPQAPLAQGTGYRLVRASREPVWTRLAQLSCVAFSRGTHITMGTGEQRPIEMLRAGDRVLTRNSGARRITWVGHTTVRAVGEMAPILIRQGALNNARDLLVSPDHRLMIYQRSDALGAGRNELMIRARDLVNGDSVVVQDGGFVDYYQILFDRHHIIYAEGIAAESMLVDPVTRPALPEEVQQRLTQPRRHGTRGDHGLEIRRPMLSHPDTVDLLKRASLR
- soluble on expression in E. coli: not soluble

Sequence: MVAHSSVEGNQGIEDRQVSTEASSDVFQSQRSRPRQSTVAFQTHFKPFNYARDFKIISNTTSMLEESGFYWGPMTVEEAHLKLKKESVGTFLIRDSRQSDVFFTLSYKAQNGPVSIRINFKNSKFSLTGSKESFDSLFKLLEHYISSPKKGLIRPCRKEPVQSLQQLCRRQIMERCDGKDIDCIPVQPILKDFLHAFPHPL
- soluble on expression in E. coli: not soluble

Sequence: MAHHHHHHMFHLWPLRPQPNRKPLGSKVVCWPQRRQIPPAPRQVWISQTRRRGPPCSVKEGEPSWRQGTRPDWPELKRSQRQSTAGRATDLSVDKAIPFGALLPCGEASKQHQQQQPNATGNWHDDADAPKEGLETN
- soluble on expression in E. coli: soluble

Sequence: MGSDKIHHHHHHMKKLSHQFDKPKRSVASPEALEALRNNNAVRWYVLSLPDCHRGGVRGLQREQDRRIQAGEPSFGFFAPSYQEVRRIDGKFVNTQRPLLFNYVFVRASERDVFQLMQRFPVLSFLPRVRERKREYFPYLSDAAMENLQWVARSYSNTLPVYIPQPDGLRKGDRIRITEGRFKGVEATVVIQPGAGRKDVMVCVENWMWVPLLRVMPGEYEVIALNDEDKHVYTRLDNDCMLNGLHSALQRYHSAEGVNEEDRSLAARALKEYGNLRMDTDVMRCKLYAILLPAYTILGMEEEAAKLVGVMQTMLPLVKAEQSRALAVVTLYGCTDSSIYYHLAHEAVDPWKKEEKPKKSKQQLINRLADYDRWLRH
- soluble on expression in E. coli: not soluble
